The results in this text go back to US20190127480A1 (Regeneron, published 2019).

Changes are numbered by the printed parent chain. Numbers in names are those of the source.

Experiment [1] addresses T1, cynomolgus monkey CD3 expressed on monkey T-cells (PBMCs) (cynomolgus monkey, UniProt Q95LI5 22-198; Q95LI8 22-171). As to the kind of experiment: cell-based or functional assay.
The target in experiment [2] is T1, cynomolgus monkey CD3 expressed on …. As to the kind of experiment: FACS titration on monkey PBMCs, gated on CD2+CD4+ T cells. The method, then:
FACS data was acquired using the following protocol: Cells at 2×10⁵ per well were incubated with serially diluted antibodies for 30 min on ice. Post incubation, cells were washed and secondary antibodies were added and incubated for an additional 30 minutes. After incubation, cells were washed, re-suspended in cold PBS containing 1% BSA and analyzed by flow cytometry. CD4+ monkey T cells were gated by side and forward scatters, and on the CD2+CD4+CD20− population. The EC₅₀s for cell binding titration were calculated using a 4-parameter non-linear regression analysis in GraphPad Prism.

Experiment [3] deals with human CD3 expressed on cells (Jurkat cells; human T-cells of PBMC) (human, UniProt P09693 23-182; P20963 22-164). As to the kind of experiment: cell-based or functional assay.
The target of experiment [4] is T2, human CD3 on CD3-expressing cells (Jurkat, human T cells) (human, UniProt P07766 23-207; P04234 22-171).
T2 construct: On cells CD3 stands within the T cell receptor complex (also gamma and zeta chains); also called human CD3 expressing Jurkat cells
As to the kind of experiment: FACS on Jurkat cells. Here is the method: (§1) Briefly, 2×10⁵ cells/well of human CD3-expressing Jurkat, cynomolgus T, or human PSMA-specific expressing cells were incubated with a serial dilution of bispecific antibodies for 30 min at 4° C. After incubation, cells were washed and a goat F(ab′)₂ anti-human Fcγ PE labeled secondary (Jackson Immunolabs) was added to the cells for an additional 30 min. Next, cells were washed, re-suspended in cold PBS+1% BSA and analyzed via flow cytometry on a BD FACS Canto II.
(§2) For FACS analysis, cells were gated by forward scatter height vs. forward scatter area for single events selection, followed by side and forward scatters. The EC₅₀ for cell binding titration was determined using Prism software. Values were calculated using 4-parameter non-linear regression analysis.

The target of experiment [5] is T3, human PSMA on PSMA-expressing cells (human, UniProt Q04609 1-750). As to the kind of experiment: cell-based or functional assay.
The target of experiment [6] is T2, human CD3 on CD3-expressing cells …. Kind of experiment: cell-based or functional assay.
In experiment [7] the target is T3, human PSMA on PSMA-expressing cells. Kind of experiment: FACS on B16F10.9/PSMA cells. The method, then:
as §1, §2

For experiment [8], the target named is T4, soluble heterodimeric hCD3ε/δ.mFc protein (human).
T4 construct: also called soluble human CD3; soluble heterodimeric CD3 protein
T4 chain 1: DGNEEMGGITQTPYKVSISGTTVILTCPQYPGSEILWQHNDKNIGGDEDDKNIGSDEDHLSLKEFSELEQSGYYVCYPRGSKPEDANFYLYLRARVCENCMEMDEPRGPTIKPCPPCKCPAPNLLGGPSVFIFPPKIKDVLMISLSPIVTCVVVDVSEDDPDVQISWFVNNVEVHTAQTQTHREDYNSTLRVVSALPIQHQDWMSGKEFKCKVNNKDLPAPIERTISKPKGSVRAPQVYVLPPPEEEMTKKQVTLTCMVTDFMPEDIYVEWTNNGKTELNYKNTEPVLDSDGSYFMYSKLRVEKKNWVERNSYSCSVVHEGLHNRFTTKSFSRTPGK
T4 chain 2: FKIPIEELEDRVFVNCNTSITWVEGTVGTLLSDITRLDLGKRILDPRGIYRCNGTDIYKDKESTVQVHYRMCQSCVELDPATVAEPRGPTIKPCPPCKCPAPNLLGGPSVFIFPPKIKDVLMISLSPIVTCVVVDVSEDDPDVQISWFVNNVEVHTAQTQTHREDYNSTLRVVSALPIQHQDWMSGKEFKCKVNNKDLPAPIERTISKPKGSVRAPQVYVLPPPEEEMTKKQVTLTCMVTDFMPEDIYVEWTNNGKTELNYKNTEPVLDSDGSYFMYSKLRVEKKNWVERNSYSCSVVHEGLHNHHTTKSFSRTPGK
As to the kind of experiment: SPR MASS-1, 37 C, antigen-capture format. The method, then:
Measurements were conducted on a Sierra Sensors MASS-1 instrument.
In the antigen-capture format, the MASS-1 high-density amine sensor surface was derivatized with a goat anti-mouse IgG2a polyclonal antibody (Southern Biotech). Soluble heterodimeric CD3 protein was captured and the respective antibodies were injected over the captured antigen.
Kinetic association (kₐ) and dissociation (kd) rate constants were determined by processing and fitting the data to a 1:1 binding model using MASS-1 AnalyserR2 curve fitting software. Binding dissociation equilibrium constants (KD) and dissociative half-lives (t_{1/2}) were calculated from the kinetic rate constants as: KD (M)=kd/kₐ; and t_{1/2} (min)=(ln 2/(60*kd).

Experiment [9] concerns the target T2, human CD3 on CD3-expressing cells …. As to the kind of experiment: FACS titration of Jurkat cells.
Experiment [10] deals with T5, cynomolgus CD3 on cynomolgus T cells (cynomolgus, UniProt Q95LI5 22-198; Q95LI8 22-171).
T5 construct: whole, on cells; also called Cyno T-cells; monkey T-cells
As to the kind of experiment: FACS titration of cynomolgus T cells.

The target in experiment [11] is T6, human PSMA expressed with an N-terminal hexahistidine tag (6h.hPSMA, R&D) (human, UniProt Q04609 44-750).
T6 construct: Bought soluble protein; also called soluble human PSMA; human PSMA protein
As to the kind of experiment: SPR Biacore T-200, 37 C, antibody-capture (anti-mouse Fc), 6h.hPSMA as analyte. The method, then: Briefly, a CM5 Biacore™ sensor surface was derivatized via amine coupling with a monoclonal mouse anti-human Fc antibody (GE, # BR-1008-39) or monoclonal goat anti-mouse Fc antibody (GE, # BR-1008-38) to capture purified anti-PSMA antibodies. Binding studies were performed in HBSP++ buffer composed of 0.01M HEPES, 0.15M NaCl, 2 mM Ca²⁺, 2 mM Mg²⁺, 0.05% v/v Surfactant P20, pH7.4. Varying concentrations of human PSMA expressed with an N-terminal hexahistidine tag (6h.hPSMA, R&D) prepared in HBSP++ running buffer (ranging from 50 to 0.78 nM, 4-fold dilutions) were injected over the anti-PSMA antibody captured surface at a flow rate of 30 μL/minute. Antibody-reagent association was monitored for 2 minutes while dissociation in HBSP++ running buffer was monitored for 8 minutes.
Kinetic association (kₐ) and dissociation (kd) rate constants were determined by fitting the real-time sensorgrams to a 1:1 binding model using Scrubber 2.0c curve fitting software. Binding dissociation equilibrium constants (KD) and dissociative half-lives (t½) were calculated from the kinetic rate constants as: KD (M)=kd/kₐ; and t_{1/2} (min)=(ln 2/(60*kd).

Experiment [12] concerns the target T3, human PSMA on PSMA-expressing cells. Kind of experiment: FACS on 22RV1 cells. Here is the method:
as §1, §2

T3 sequence (Q04609 whole entry): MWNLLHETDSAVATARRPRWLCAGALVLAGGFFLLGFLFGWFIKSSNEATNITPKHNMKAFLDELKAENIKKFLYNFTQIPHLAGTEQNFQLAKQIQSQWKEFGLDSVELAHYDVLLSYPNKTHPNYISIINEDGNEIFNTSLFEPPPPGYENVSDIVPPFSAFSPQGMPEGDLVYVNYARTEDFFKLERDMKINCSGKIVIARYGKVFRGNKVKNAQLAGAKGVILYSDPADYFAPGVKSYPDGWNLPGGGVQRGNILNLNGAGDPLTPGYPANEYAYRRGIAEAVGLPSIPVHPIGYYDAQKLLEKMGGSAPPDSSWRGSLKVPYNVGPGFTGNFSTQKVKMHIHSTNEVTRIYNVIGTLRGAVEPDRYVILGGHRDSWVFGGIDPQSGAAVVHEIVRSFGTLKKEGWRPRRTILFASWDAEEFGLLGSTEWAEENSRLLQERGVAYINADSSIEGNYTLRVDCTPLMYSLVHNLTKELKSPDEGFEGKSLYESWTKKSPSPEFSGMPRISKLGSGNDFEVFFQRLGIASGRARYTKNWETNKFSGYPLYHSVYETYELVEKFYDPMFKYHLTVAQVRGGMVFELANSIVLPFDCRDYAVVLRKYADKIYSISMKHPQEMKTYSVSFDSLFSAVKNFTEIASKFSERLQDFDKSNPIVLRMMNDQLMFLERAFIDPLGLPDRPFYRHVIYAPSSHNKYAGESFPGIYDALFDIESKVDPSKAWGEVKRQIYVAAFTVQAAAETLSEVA
T1 sequence (Q95LI5 22-198, chain 1 of 2): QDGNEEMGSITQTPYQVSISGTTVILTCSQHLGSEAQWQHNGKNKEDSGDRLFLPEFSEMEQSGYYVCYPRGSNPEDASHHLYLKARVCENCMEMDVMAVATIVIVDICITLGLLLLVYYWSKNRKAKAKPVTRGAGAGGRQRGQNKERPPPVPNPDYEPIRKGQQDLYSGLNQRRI
T1 sequence (Q95LI8 22-171, chain 2 of 2): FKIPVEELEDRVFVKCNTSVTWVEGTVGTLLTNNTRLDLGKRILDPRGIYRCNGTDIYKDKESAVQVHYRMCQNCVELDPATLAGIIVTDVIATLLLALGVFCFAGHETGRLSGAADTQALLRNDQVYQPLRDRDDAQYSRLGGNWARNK
T2 sequence (P07766 23-207 limits assumed, chain 1 of 2): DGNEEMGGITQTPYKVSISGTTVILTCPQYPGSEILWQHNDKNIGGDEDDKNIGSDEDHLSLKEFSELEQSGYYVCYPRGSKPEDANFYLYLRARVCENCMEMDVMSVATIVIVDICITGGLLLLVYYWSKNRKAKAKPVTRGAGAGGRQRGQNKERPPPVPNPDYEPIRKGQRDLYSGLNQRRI
T2 sequence (P04234 22-171 limits assumed, chain 2 of 2): as the sequence (Q95LI8 22-171, chain 2 of 2) above, with V5I, K15N, V20I, T32S, N33D, N34I, A64T, N74S, L83V, R141H counted along it
T6 sequence (Q04609 other isoform, or with tags, fused parts or gaps limits assumed): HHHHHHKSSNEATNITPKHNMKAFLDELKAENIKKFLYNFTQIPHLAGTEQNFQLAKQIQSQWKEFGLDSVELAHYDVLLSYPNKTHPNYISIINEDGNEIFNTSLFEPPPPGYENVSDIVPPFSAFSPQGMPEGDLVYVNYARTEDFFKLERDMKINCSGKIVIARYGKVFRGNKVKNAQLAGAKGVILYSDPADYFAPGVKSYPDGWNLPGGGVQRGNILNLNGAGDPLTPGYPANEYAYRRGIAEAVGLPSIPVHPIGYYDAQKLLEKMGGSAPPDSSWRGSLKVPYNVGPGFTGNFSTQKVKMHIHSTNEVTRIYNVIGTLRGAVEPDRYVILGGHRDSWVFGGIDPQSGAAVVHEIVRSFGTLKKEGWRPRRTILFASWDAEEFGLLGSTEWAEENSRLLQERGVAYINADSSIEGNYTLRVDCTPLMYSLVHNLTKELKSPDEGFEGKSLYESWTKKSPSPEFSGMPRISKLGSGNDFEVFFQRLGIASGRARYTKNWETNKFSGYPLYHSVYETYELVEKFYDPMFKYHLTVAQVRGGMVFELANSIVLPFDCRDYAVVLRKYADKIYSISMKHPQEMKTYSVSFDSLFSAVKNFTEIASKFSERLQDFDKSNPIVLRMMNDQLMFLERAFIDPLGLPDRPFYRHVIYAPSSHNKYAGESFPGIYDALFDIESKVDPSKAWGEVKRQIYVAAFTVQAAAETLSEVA
Sequence of human CD3 expressed on cells (Jurkat cells; human T-cells of PBMC) (chain, as listed by the source, chain 1 of 4): as the sequence (P07766 23-207 limits assumed, chain 1 of 2) above
Sequence of human CD3 expressed on cells (Jurkat cells; human T-cells of PBMC) (chain, as listed by the source, chain 2 of 4): as the sequence (Q95LI8 22-171, chain 2 of 2) above, with V5I, K15N, V20I, T32S, N33D, N34I, A64T, N74S, L83V, R141H counted along it
Sequence of human CD3 expressed on cells (Jurkat cells; human T-cells of PBMC) (P09693 23-182, chain 3 of 4): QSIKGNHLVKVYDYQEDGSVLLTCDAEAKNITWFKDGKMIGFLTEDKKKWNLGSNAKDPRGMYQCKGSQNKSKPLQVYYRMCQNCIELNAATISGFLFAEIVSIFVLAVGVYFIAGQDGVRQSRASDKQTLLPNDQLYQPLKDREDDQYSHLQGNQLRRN
Sequence of human CD3 expressed on cells (Jurkat cells; human T-cells of PBMC) (P20963 22-164, chain 4 of 4): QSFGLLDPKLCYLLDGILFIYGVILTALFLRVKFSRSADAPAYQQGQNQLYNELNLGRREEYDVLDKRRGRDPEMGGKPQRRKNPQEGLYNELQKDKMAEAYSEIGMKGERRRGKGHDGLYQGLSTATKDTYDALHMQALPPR
T5 sequence (Q95LI5 22-198, form in doubt, chain 1 of 2): as the sequence (Q95LI5 22-198, chain 1 of 2) above
T5 sequence (Q95LI8 22-171, form in doubt, chain 2 of 2): as the sequence (Q95LI8 22-171, chain 2 of 2) above

B1: H1H2712N (antibody, human IgG1, V domains shown)
VH: EVQLVESGGGLVQPGGSLRLSCAATGFTFDDFTMHWVRQAPGKGLEWVSGISWNSGSIGYVDSVKGRFTISRDNAKNSLYLQMNSLRAEDTALYYCAKDNSGYGYYYYGMDVWGQGTTVTVSS
VL: EIVMTQSPATLSVSPGERATLSCRASHSVSRNSAWYQQKPGQAPRLLIYGASTRATGIPARFSGSGSGTEFTLTISSLQSEDFAIYYCQQYNNWPLTFGGGTKVEIK
notes: H1H: human IgG1 Fc
On to B1, for which, in [1], the “EC50 [M] mfPBMC Proliferation” value stood at 2.72e-12 M. In experiment [2], this molecule showed an EC50 of 2.29 nM.

B2: H2M3547N (antibody, mouse IgG2, V domains shown)
VH: EAQLVESGGGLVQPGRSLRLSCTTSGFTFDDYTMHWVRQAPGKGLEWISDISWNGGTKGYADSVKGRFTISRDNAKNSLYLQMDSLRGEDTALYYCVKDKSGYGHFYFGLDVWGQGTTVTVSS
VL: DIQMTQSPSSLTASVGDRVTFTCRASQSISRHLSWYQQKPGKAPKLLIYAASSLESGVPSRFSGSGSGTDFTLTISSLHPEDFATYYCQQSYSNPPITFGQGTRLEIK
notes: H2M: human variable regions, mouse IgG2 Fc
In the case of B2, the “U937 Cytotoxicity Human T-cells” value in experiment [3] was 31.7 pM. In experiment [2], this molecule showed an EC50 of 0.112 nM.

B3: BSPSMA/CD3-004 (bispecific antibody, IgG4, V domains shown)
VH 1: QVQLVESGGGVVQPGRSLRLSCAASGFTFSSYGMHWVRQAPGKGLEWVAVISYAGNNKYYADSVKGRFTVSRDNSKKTLYLQMNSLRSEDTAVYYCAKDSYYDFLTDPDVLDIWGQGTMVTVSS
VH 2: EVQLVESGGGLVQPGRSLRLSCAASGFTFDDYSMHWVRQAPGKGLEWVSGISWNSGSIGYADSVKGRFTISRDNAKNSLYLQMNSLRAEDTALYYCAKDGSGYGKFYYYGMDVWGQGTTVTVSS
VL: DIQMTQSPSSLSASVGDSVTITCRASQSINNYLNWYQQKPGKAPKLLIYTASSLLSGVPSRFSGSGSGTDFTLTISGLHPEDFATYFCQQSFSTPPITFGQGTRLDIK
notes: modified (chimeric) IgG4 Fc domain; also called PSMA-VH-11810 x CD3-VH-G5
Take B3: the EC50 in experiment [4] is roughly 1000 nM. Further, in experiment [5], the “22RV1 Cell depletion EC50” value is 0.00631 nM, the “C4-2 Cell depletion EC50” value was 0.0215 nM and the “TrampC2.PSMA Cell depletion EC50” value was 0.0115 nM. In addition, the “T cell activation EC50” value in [6] amounted to 0.0134 nM. In [7], this molecule displayed an EC50 of 1.31 nM. Besides, the binding result in experiment [8] was “no binding”.

B4: H2M3563N (antibody, mouse IgG2, V domains shown)
VH: B3 VH 2 with Q3H, S33T, G50D, I70V, A88G, G100M, K105H, F106Y, Y107G, Y108K
VL: DIQMTQSPSSLSASVGDRVTITCRASQSIRSYLNWYQQKPGKVPKLLIYAASSLQSGVPSRFSGSGSGTDFTLTINSLQPDDFATYYCQQTYSNPPITFGQGTRLEIK
notes: as for B2
B4: the “U937 Cytotoxicity Human T-cells” value in experiment [3] turned out to be 40.5 pM. Moreover, the EC50 in [2] worked out at 0.165 nM.

B5: CD3-VH-P (antibody, V domains shown)
VH: B3 VH 2 with A23V, I58K, G59D, D99Y, Y108H, M111L
VL: B3 VL
notes: also called CD3 antibody designated CD3-VH-P
As for B5, the EC50 in experiment [9] and in [10] was 1 to 40 nM throughout.

B6: H1M11900N (antibody, mouse IgG1, V domains shown)
VH: EVQLVESGGALVQTGGSLRLSCVASGFTFSNYWMSWVRQSPGKGLQWVASIKKDGSDEDYVDSVKGRFTISRDNAENSLYLQMTSLRIEDTAVYYCARFISAVGVDWGQGALVTVSS
VL: B3 VL
notes: human variable / mouse constant region (H1M: mouse IgG1 Fc)
As for B6, in [11], the Kd worked out at 25.8 nM, the koff is 0.00406 s⁻¹, the kon is 157000 M⁻¹ s⁻¹ and the “t1/2” value was 2.8 min.

B7: BSPSMA/CD3-001 (bispecific antibody, IgG4, V domains shown)
VH 1: QVQLVESGGGVVQPGRSLRLSCAASGFTFITYGMHWVRQAPGKGLEWVAIIYYDESNKYYADSVKGRFTISRDISKNTLYLQMNGLRAEDTAVYYCARAPRVAVEEDYSYYYGMDVWGQGTTVTVSS
VH 2: EVQLVESGGGLVQPGRSLRLSCVASGFTFADFTMHWVRQAPGKGLEWVSGISWNSNSIDYADSVKGRFTISRDNAKKSLFLQMSSLRAEDTALYYCVKDRSGYSRFYYGMDVWGQGTTVTVSS
VL: EIVMTQSPATLSVSPGERAILSCRASQNINSNLAWYQQKPGQAPRLLIYGASTRATGVPARFSGSGSGTEFTLTIRSLQSEDFAVYYCQQYYNWPITFGHGTRLEIK
notes: modified (chimeric) IgG4 Fc domain as in US20140243504A1; also called PSMA-VH-3465 x CD3-VH-A, CD3-VL-A
Take B7: the results for the EC50 in experiment [12] and in [4] were 78.5 nM and 39.1 nM, respectively.

The EC50 is the midpoint of the concentration-response curve. The term Kd denotes the equilibrium constant for the complex coming apart. The term koff denotes a measure of how fast the partners let go of each other. Usually kon stands for the second-order rate constant of association.
